Ends that are not written are not given here. * marks the point of attachment. Biotin = O=C1N[C@H]2[C@H](CS[C@H]2CCCCC(=O)*)N1
Tests used:
Test in all cases: peptide or protein array; E. coli proteome chip: purified His-tagged proteins printed in duplicate on Fullmoon slides, blocked with 1% BSA; 10 nM N-terminal biotinylated LfcinB with 1% BSA, room temperature, 1 h; detected with DyLight 649-labeled streptavidin, ratio to DyLight 549-labeled anti-His antibody; ProCAT normalisation, local cut-off; triplicate chips
Settings in all cases: both partners purified
YbbN = biological target: T1, YbbN (E. coli K-12, UniProt P77395 1-284)
T1 construct: YbbN, E. coli K-12
T1 sequence (looked up): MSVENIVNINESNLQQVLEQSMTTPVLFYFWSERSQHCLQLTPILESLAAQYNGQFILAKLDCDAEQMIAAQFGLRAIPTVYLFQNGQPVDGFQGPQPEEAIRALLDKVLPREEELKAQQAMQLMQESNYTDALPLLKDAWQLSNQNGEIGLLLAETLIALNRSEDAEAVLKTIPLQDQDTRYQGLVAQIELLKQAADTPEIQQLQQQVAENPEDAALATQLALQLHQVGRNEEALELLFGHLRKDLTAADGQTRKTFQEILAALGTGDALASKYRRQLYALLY

YefE = biological target: T2, YefE (E. coli K-12, UniProt P37747 1-367)
T2 construct: YefE, E. coli K-12
T2 sequence (looked up): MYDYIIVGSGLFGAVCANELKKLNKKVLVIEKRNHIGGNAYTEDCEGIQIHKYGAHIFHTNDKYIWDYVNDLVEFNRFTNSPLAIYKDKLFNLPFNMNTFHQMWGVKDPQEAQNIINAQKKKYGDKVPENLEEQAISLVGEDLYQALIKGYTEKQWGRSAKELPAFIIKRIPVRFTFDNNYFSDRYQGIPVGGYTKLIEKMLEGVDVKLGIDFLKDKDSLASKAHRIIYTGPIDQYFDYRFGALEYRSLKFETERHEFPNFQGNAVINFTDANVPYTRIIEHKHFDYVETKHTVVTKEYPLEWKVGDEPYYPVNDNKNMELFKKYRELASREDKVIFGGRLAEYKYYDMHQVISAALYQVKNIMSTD

RhaR = biological target: T3, RhaR (E. coli K-12, UniProt P09378 1-282)
T3 construct: RhaR, E. coli K-12
T3 sequence (looked up): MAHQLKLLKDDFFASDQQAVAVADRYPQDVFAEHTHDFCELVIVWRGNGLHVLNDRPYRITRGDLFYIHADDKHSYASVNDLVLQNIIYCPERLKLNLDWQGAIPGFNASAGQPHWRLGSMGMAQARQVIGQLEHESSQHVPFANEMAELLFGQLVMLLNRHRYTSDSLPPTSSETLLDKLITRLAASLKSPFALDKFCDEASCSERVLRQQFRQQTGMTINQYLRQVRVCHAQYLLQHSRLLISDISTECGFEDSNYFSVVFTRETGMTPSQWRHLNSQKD

YjdK = biological target: T4, YjdK (E. coli K-12, UniProt P0AF61 1-98)
T4 construct: YjdK, E. coli K-12
T4 sequence (looked up): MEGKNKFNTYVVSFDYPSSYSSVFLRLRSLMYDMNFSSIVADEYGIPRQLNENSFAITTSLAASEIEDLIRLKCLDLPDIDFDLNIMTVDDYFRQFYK

AroD = biological target: T5, AroD (E. coli K-12, UniProt P05194 1-252)
T5 construct: AroD, E. coli K-12
T5 sequence (looked up): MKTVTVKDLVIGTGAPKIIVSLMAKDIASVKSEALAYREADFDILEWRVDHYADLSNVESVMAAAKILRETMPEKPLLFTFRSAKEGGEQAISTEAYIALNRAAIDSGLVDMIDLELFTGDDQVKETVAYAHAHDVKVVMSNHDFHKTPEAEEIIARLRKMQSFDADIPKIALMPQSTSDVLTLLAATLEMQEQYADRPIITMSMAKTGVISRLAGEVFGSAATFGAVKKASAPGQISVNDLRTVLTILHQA

GlpK = biological target: T6, GlpK (E. coli K-12, UniProt P0A6F3 1-502)
T6 construct: GlpK, E. coli K-12

Smg = biological target: T7, Smg (E. coli K-12, UniProt P0A828 1-157)
T7 construct: Smg, E. coli K-12
T7 sequence (looked up): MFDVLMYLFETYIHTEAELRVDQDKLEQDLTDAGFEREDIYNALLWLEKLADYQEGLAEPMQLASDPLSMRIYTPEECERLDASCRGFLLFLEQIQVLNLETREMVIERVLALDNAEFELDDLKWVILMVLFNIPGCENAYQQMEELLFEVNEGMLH

Measured: binding result

T6 sequence (P0A6F3 whole entry): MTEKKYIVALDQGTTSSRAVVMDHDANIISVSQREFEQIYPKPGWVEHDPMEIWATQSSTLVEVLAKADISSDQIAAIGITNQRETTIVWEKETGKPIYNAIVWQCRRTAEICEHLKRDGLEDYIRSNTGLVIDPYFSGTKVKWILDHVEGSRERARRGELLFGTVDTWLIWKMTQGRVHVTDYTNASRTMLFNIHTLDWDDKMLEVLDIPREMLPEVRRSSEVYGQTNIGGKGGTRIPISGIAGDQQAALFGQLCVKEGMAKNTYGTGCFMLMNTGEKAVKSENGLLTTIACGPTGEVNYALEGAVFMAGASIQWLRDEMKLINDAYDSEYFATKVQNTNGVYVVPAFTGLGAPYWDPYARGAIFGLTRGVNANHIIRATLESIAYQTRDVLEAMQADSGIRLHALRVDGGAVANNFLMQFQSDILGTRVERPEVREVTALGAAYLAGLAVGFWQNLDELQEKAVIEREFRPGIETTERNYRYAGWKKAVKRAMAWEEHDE

B1: N-terminal biotinylated Lactoferricin B (peptide, UniProt P24627 36-60, looked up)
peptide: Biotin-FKCRRWQWRMKKLGAPSITCVRRAF
modifications: ends and bridges not checked
notes: lactoferricin B (LfcinB), cationic antimicrobial peptide of 25 amino acids; also called biotinylated LfcinB; biotin-labeled LfcinB; source: bought: Kelowna Inc
binds: all assays above

— paper PMC3229523, “Identification of Lactoferricin B Intracellular Targets Using an Escherichia coli Proteome Chip” (PLoS ONE, 2011)
